PMC10113159

Assays:
Details in all cases: protein: recombinant; tags: untagged; copies: 1;1;1
[1] = target: T1, RPA heterotrimer (RPA1-RPA2-RPA3), WT (Homo sapiens, UniProt P27694;P15927;P35244 1-616;1-270;1-121); experiment: fluorescence microscopy, co-partitioning into RPA droplets; equimolar; Droplet assay buffer and temperature not in material; protein stored in diluted Sorensen phosphate buffer (43.4 mM Na2HPO4, 6.6 mM KH2PO4) pH 7.6, 150 mM KCl, 25 uM EDTA, 1 mM DTT
[2] = target: T1, RPA heterotrimer (RPA1-RPA2-RPA3), WT; experiment: fluorescence microscopy, co-partitioning into RPA droplets; equimolar; co-assembly, indirect evidence of binding; Droplet assay buffer and temperature not in material; protein stored in diluted Sorensen phosphate buffer (43.4 mM Na2HPO4, 6.6 mM KH2PO4) pH 7.6, 150 mM KCl, 25 uM EDTA, 1 mM DTT
[3] = target: T1, RPA heterotrimer (RPA1-RPA2-RPA3), WT; experiment: fluorescence microscopy, co-partitioning into RPA droplets; equimolar; not enriched in droplets; Droplet assay buffer and temperature not in material; protein stored in diluted Sorensen phosphate buffer (43.4 mM Na2HPO4, 6.6 mM KH2PO4) pH 7.6, 150 mM KCl, 25 uM EDTA, 1 mM DTT

T1 sequence (P27694 whole entry, chain 1 of 3): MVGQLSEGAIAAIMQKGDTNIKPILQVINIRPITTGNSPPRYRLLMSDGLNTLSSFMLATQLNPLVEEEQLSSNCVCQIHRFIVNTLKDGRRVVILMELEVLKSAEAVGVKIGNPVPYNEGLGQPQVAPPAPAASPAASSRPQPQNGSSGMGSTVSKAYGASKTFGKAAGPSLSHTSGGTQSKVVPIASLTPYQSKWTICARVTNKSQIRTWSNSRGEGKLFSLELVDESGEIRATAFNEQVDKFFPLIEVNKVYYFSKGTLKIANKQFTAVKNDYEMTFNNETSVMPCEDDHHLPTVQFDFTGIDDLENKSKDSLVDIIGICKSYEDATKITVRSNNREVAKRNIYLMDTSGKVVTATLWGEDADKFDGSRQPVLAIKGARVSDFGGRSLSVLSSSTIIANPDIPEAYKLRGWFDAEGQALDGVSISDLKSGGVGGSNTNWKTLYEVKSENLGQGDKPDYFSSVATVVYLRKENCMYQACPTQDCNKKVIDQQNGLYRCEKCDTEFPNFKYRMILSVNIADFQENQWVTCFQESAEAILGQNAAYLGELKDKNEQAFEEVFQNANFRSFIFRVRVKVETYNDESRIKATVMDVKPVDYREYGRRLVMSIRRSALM
T1 sequence (P15927 whole entry, chain 2 of 3): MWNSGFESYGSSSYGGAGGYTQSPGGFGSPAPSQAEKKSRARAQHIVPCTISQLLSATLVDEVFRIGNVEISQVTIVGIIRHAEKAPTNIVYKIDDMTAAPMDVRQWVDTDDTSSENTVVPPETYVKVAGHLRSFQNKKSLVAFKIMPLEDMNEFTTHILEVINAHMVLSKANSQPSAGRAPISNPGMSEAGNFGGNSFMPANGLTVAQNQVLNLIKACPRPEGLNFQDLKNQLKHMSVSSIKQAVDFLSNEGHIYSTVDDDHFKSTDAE
T1 sequence (P35244 whole entry, chain 3 of 3): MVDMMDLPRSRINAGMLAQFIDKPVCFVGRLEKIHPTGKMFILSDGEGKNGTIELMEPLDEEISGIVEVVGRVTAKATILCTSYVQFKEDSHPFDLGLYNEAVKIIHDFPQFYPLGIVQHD

ATGTGGAACAGTGGATTCGAAAGCTATGGCAGCGACGACT (ssDNA) [Cy3-40nt ssDNA]
binding result [1]: binds

ATGTGGAACAGTGGATTCGAAAGCTATGGCAGCGACGACT (ssDNA) [FAM-40nt ssDNA]
binding result [1]: binds

AATTGTTATCCGCTCAC (ssDNA) [FAM-17nt ssDNA]
binding result [2]: binds

AGUCGUCGCUGCCAUAGCUUUCGAAUCCACUGUUCCACAU (ssRNA) [Cy3-40nt ssRNA]
binding result [3]: no binding
